# Test results from the supplement of paper PMC9112550, “Optimization of the antimicrobial peptide Bac7 by deep mutational scanning” (BMC Biology, 2022).
# System: Escherichia coli TOP10
# Assay: shrunken log2 fold change of peptide-encoding DNA abundance (4.5 h post-induction vs induction); higher = less antimicrobial activity (less host growth inhibition)
# Settings: time post-induction: 4.5 h; library: site-saturation at positions 5, 18, 19, 20
# 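Note: peptides expressed intracellularly from a pBAD plasmid library in pooled LB shake-flask culture, induced with 0.3% L-arabinose, DNA abundance read by NGS, three biological replicates, DESeq2 with apeglm shrinkage.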
row,Sequence,shrunken log2 fold change
1,RRIRNRPPRLPRPRPRPPHPPRP,0.292
2,RRIRMRPPRLPRPRPRPGTLPRP,-0.02
3,RRIRKRPPRLPRPRPRPRNQPRP,0.493
4,RRIRLRPPRLPRPRPRPNRQPRP,-0.407
5,RRIRRRPPRLPRPRPRPYNEPRP,-0.103
6,RRIRHRPPRLPRPRPRPGRSPRP,3.99
7,RRIRRRPPRLPRPRPRPMYAPRP,0.148
8,RRIRWRPPRLPRPRPRPCNWPRP,0.136
9,RRIRFRPPRLPRPRPRPFDPPRP,-0.135
10,RRIRNRPPRLPRPRPRPWCMPRP,-0.312
11,RRIRQRPPRLPRPRPRPISSPRP,0.00776
12,RRIRKRPPRLPRPRPRPKAEPRP,0.669
13,RRIRNRPPRLPRPRPRPFFIPRP,-0.586
14,RRIRKRPPRLPRPRPRPMVPPRP,-0.043
15,RRIRPRPPRLPRPRPRPRIWPRP,0.362
16,RRIRPRPPRLPRPRPRPAMIPRP,-0.26
17,RRIRPRPPRLPRPRPRPANEPRP,0.18
18,RRIRPRPPRLPRPRPRPTYQPRP,-0.0514
19,RRIRLRPPRLPRPRPRPDRNPRP,0.0573
20,RRIRNRPPRLPRPRPRPWVGPRP,-0.065
21,RRIRFRPPRLPRPRPRPVYAPRP,-0.444
22,RRIRKRPPRLPRPRPRPEEQPRP,3.17
23,RRIRERPPRLPRPRPRPASYPRP,-0.0425
24,RRIRFRPPRLPRPRPRPQCPPRP,-0.225
25,RRIRHRPPRLPRPRPRPMIFPRP,-0.251

row,Sequence,shrunken log2 fold change
1,RRIRDRPPRLPRPRPRPRLRPRP,0.122
2,RRIRMRPPRLPRPRPRPSMFPRP,-0.368
3,RRIRRRPPRLPRPRPRPYTIPRP,-0.566
4,RRIRRRPPRLPRPRPRPTEGPRP,0.18
5,RRIRMRPPRLPRPRPRPPWFPRP,0.568
6,RRIRSRPPRLPRPRPRPESDPRP,0.306
7,RRIRVRPPRLPRPRPRPWMCPRP,-0.522
8,RRIRPRPPRLPRPRPRPDEWPRP,0.0186
9,RRIRTRPPRLPRPRPRPHAYPRP,-0.635
10,RRIRVRPPRLPRPRPRPGCIPRP,-0.0275
11,RRIRERPPRLPRPRPRPHRKPRP,-0.0945
12,RRIRSRPPRLPRPRPRPHFCPRP,-0.29
13,RRIRKRPPRLPRPRPRPVEHPRP,0.455
14,RRIRVRPPRLPRPRPRPIPWPRP,-0.232
15,RRIRMRPPRLPRPRPRPFPFPRP,-0.356
16,RRIRQRPPRLPRPRPRPHFSPRP,-0.508
17,RRIRNRPPRLPRPRPRPMPSPRP,0.0832
18,RRIRFRPPRLPRPRPRPYSFPRP,-0.967
19,RRIRGRPPRLPRPRPRPQDMPRP,0.0811
20,RRIRVRPPRLPRPRPRPMFHPRP,-0.22
21,RRIRCRPPRLPRPRPRPVTQPRP,-0.15
22,RRIRTRPPRLPRPRPRPQGQPRP,-0.186
23,RRIRMRPPRLPRPRPRPFWHPRP,-0.00226
24,RRIRKRPPRLPRPRPRPWGEPRP,0.539
25,RRIRMRPPRLPRPRPRPWNSPRP,-0.00149

row,Sequence,shrunken log2 fold change
1,RRIRPRPPRLPRPRPRPEDMPRP,-0.927
2,RRIRPRPPRLPRPRPRPIPAPRP,0.342
3,RRIRPRPPRLPRPRPRPEAIPRP,0.102
4,RRIRTRPPRLPRPRPRPVDCPRP,-0.142
5,RRIRWRPPRLPRPRPRPVCKPRP,0.643
6,RRIRARPPRLPRPRPRPHVDPRP,0.142
7,RRIRDRPPRLPRPRPRPTRKPRP,0.385
8,RRIRTRPPRLPRPRPRPTDHPRP,-0.283
9,RRIRSRPPRLPRPRPRPLIKPRP,-0.258
10,RRIRRRPPRLPRPRPRPIPGPRP,0.292
11,RRIRPRPPRLPRPRPRPFSMPRP,-0.161
12,RRIRTRPPRLPRPRPRPRNFPRP,0.172
13,RRIRMRPPRLPRPRPRPSYSPRP,-0.157
14,RRIRDRPPRLPRPRPRPVEAPRP,0.441
15,RRIRVRPPRLPRPRPRPIREPRP,-0.152
16,RRIRKRPPRLPRPRPRPQPDPRP,0.459
17,RRIRYRPPRLPRPRPRPQLPPRP,-0.0333
18,RRIRNRPPRLPRPRPRPHTSPRP,-0.268
19,RRIRVRPPRLPRPRPRPHKQPRP,0.0253
20,RRIRQRPPRLPRPRPRPAIYPRP,-0.0621
21,RRIRYRPPRLPRPRPRPFVVPRP,-0.786
22,RRIRARPPRLPRPRPRPDCAPRP,0.826
23,RRIRMRPPRLPRPRPRPRPAPRP,1.51
24,RRIRLRPPRLPRPRPRPEKFPRP,-0.175
25,RRIRRRPPRLPRPRPRPHQDPRP,0.0414

row,Sequence,shrunken log2 fold change
1,RRIRKRPPRLPRPRPRPRYNPRP,-0.312
2,RRIRQRPPRLPRPRPRPCSLPRP,-1.03
3,RRIRFRPPRLPRPRPRPHYAPRP,-0.285
4,RRIRGRPPRLPRPRPRPRARPRP,1.09
5,RRIRYRPPRLPRPRPRPWAGPRP,-0.53
6,RRIRLRPPRLPRPRPRPSNTPRP,-0.624
7,RRIRWRPPRLPRPRPRPTAYPRP,0.0204
8,RRIRTRPPRLPRPRPRPYREPRP,-0.196
9,RRIRSRPPRLPRPRPRPIPSPRP,-0.00523
10,RRIRKRPPRLPRPRPRPLCIPRP,-0.0466
11,RRIRSRPPRLPRPRPRPLYVPRP,-0.467
12,RRIRKRPPRLPRPRPRPRFGPRP,0.217
13,RRIRMRPPRLPRPRPRPTHNPRP,0.275
14,RRIRDRPPRLPRPRPRPHWYPRP,-0.212
15,RRIRNRPPRLPRPRPRPFKEPRP,-0.161
16,RRIRGRPPRLPRPRPRPLFIPRP,-0.234
17,RRIRWRPPRLPRPRPRPCVVPRP,0.0549
18,RRIRERPPRLPRPRPRPFERPRP,0.00782
19,RRIRLRPPRLPRPRPRPYICPRP,-0.0262
20,RRIRMRPPRLPRPRPRPNKWPRP,0.079
21,RRIRNRPPRLPRPRPRPWHEPRP,-0.454
22,RRIRIRPPRLPRPRPRPVHPPRP,-0.0793
23,RRIRERPPRLPRPRPRPDSSPRP,-0.509
24,RRIRYRPPRLPRPRPRPWMCPRP,-0.0907
25,RRIRERPPRLPRPRPRPWGCPRP,-0.364

row,Sequence,shrunken log2 fold change
1,RRIRQRPPRLPRPRPRPCYTPRP,-0.149
2,RRIRVRPPRLPRPRPRPHDPPRP,0.0847
3,RRIRIRPPRLPRPRPRPFPQPRP,-0.549
4,RRIRTRPPRLPRPRPRPTPMPRP,0.276
5,RRIRSRPPRLPRPRPRPVDLPRP,-0.199
6,RRIRWRPPRLPRPRPRPRQYPRP,-0.534
7,RRIRERPPRLPRPRPRPLERPRP,-0.191
8,RRIRGRPPRLPRPRPRPFCHPRP,0.418
9,RRIRQRPPRLPRPRPRPPTSPRP,-0.00728
10,RRIRKRPPRLPRPRPRPKLDPRP,0.707
11,RRIRVRPPRLPRPRPRPAFWPRP,2.56
12,RRIRERPPRLPRPRPRPQIPPRP,-0.237
13,RRIRPRPPRLPRPRPRPYDAPRP,-0.0642
14,RRIRFRPPRLPRPRPRPYTGPRP,-0.0357
15,RRIRPRPPRLPRPRPRPQKGPRP,-0.0684
16,RRIRRRPPRLPRPRPRPKPPPRP,0.735
17,RRIRGRPPRLPRPRPRPVHVPRP,0.0798
18,RRIRRRPPRLPRPRPRPRNAPRP,0.356
19,RRIRRRPPRLPRPRPRPWAFPRP,0.00699
20,RRIRDRPPRLPRPRPRPNIGPRP,-0.0132
21,RRIRYRPPRLPRPRPRPYLDPRP,0.0821
22,RRIRHRPPRLPRPRPRPIHLPRP,-0.541
23,RRIRMRPPRLPRPRPRPWFCPRP,-1.02
24,RRIRSRPPRLPRPRPRPWQSPRP,0.143
25,RRIRNRPPRLPRPRPRPAQQPRP,0.017
